Test results from patent US20260183370A1 (ASCENDIS PHARMA GROWTH DISORDERS A S, published 2026).
Bridge positions count the residues as written; N and C are the ends. Side chains are listed from the residue outwards. Ends that are not written are not given here. * marks the point of attachment. Hexanoyl(6-maleimido) = O=C1C=CC(=O)N1CCCCCC(=O)*; reversible prodrug linker = not defined here

T1: NPR-B receptor (natriuretic peptide receptor B), endogenous on NIH-3T3 cells (murine (endogenous in NIH-3T3 cells), UniProt Q6VVW5 17-1047)
T1 sequence (looked up): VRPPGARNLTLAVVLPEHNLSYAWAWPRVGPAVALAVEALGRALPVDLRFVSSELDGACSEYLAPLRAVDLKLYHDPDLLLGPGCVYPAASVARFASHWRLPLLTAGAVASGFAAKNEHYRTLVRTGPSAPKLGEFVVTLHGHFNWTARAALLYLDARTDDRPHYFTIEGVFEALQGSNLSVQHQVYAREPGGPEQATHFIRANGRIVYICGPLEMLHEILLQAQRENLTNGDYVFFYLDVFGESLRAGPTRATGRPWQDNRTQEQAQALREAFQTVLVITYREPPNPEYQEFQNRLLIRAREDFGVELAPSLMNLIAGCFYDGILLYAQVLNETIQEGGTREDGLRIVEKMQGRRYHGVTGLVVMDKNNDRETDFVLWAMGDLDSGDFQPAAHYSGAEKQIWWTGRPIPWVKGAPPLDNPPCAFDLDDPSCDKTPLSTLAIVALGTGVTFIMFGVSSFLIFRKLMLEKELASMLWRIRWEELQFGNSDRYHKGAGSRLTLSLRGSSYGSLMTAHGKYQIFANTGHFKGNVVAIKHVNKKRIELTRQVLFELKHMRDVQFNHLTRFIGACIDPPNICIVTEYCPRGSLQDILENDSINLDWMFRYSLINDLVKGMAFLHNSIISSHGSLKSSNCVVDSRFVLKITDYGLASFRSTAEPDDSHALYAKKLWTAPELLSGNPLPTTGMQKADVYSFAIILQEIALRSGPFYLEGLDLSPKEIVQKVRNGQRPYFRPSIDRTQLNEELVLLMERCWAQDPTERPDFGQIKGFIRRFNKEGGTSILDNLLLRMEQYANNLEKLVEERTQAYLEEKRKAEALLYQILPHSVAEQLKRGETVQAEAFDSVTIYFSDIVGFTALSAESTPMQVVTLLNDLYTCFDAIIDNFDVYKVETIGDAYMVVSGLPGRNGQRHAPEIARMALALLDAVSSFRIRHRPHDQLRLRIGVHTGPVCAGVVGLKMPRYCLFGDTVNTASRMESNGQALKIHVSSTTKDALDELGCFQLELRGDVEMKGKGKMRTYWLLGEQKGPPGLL

T2: NPR-C (natriuretic peptide receptor C), expressed on Hek293 cells (UniProt P17342 27-541, limits assumed)
T2 construct: whole, on cells
T2 sequence (looked up): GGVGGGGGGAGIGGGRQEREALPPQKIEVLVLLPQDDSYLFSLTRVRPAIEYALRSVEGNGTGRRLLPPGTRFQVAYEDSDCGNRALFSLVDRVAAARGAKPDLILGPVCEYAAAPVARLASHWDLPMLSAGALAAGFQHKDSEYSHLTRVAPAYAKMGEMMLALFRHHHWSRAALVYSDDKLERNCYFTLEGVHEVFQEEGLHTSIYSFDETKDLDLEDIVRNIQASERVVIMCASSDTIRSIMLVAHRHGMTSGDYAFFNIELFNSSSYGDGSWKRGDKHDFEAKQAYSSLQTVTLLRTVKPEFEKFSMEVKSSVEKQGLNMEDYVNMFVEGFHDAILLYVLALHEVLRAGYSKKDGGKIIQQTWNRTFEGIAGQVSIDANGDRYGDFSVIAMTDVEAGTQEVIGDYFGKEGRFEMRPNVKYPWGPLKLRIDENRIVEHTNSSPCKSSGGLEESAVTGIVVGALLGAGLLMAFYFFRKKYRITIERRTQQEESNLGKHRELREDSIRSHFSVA


Legend:
[1] = molecular target: T1, NPR-B receptor (natriuretic peptide …); test: cell-based or functional assay
[2] = molecular target: T2, NPR-C (natriuretic peptide receptor C), …; test: competition with fluorescein-labelled CNP-38 27d on NPR-C expressing Hek293 cells, flow cytometry (MFI), 4PL fit; ratio to CNP-38
Excerpt: For the NPR—C affinity assay, a NPR—C expressing Hek293 cell line was developed. The coding region of the NPR—C sequence (BC131540) was cloned into a lentiviral vector under CMV promoter for constitutive receptor expression. A bicistronic element located on the vector for puromycin resistence was used as eukaryotic selection marker. After transduction, stably growing cell pools were subjected to qRT-PCR for confirmation of receptor mRNA-expression compared to parental Hek293 cells. An NPR—C-expressing cell pool was expanded and frozen as master cell bank for CNP sample testing.
For the assay, growing cells were trypsinized from the cell flask bottom, counted, and seeded in a 96-well plate (1.5×10⁵/well) and centrifuged. Supernatants were discarded. CNP standard and sample were serially diluted over 9 steps in PBS 0.2% BSA and transferred to the micro plate in duplicates and mixed with cells. […] Subsequently, cells were analyzed by flow cytometry using mean fluorescence intensity of the FITC channel (FL1, Beckman Coulter FC500MPL) as read out.

[3] = molecular target: T1, NPR-B receptor (natriuretic peptide …); test: cell-based or functional assay; remark: listed apart in the source

Binder	EC50 compound/EC50 CNP-38 (residual NPR-B activity, cGMP production in NIH-3T3 cells) [1]	IC50 of PEGylated CNP-38/IC50 CNP-38 [2]	EC50 compound/EC50 CNP-38 (cGMP production in NIH-3T3 cells) [3]
{PEG 5 kDa-Hexanoyl(6-maleimido)}-LQEHPNARKYKGANKKGLSKGCFGLKLDRIGSMSGLGC (disulfide 22-38) [Permanent N-terminal CNP-38 PEG 5 kDa conjugate 15e]	> 5 ratio	0.53 ratio	
LQEHPNARKYKGANKKGLSKGCFGLKLDRIGSMSGLGC (5 kDa PEG stably attached through maleimidohexanoyl/thiol to the side chain of Lys26 (ring lysine); disulfide Cys22-Cys38) [Permanent Lys26 CNP-38 PEG 5 kDa conjugate 19e]	> 100 ratio	1.1 ratio	
LQEHPNARKYKGANKKGLSKGCFGLKLDRIGSMSGLGC (disulfide 22-38; not fully specified (residue 26)) [Permanent Lys26 CNP-38 PEG4x10 kDa conjugate 12g]	> 100 ratio	143 ratio	
LQEHPNARKYKGANKKGLSKGCFGLK([reversible prodrug linker-4x10 kDa PEG])LDRIGSMSGLGC (disulfide 22-38; reading uncertain, This is a reversible conjugate with an in vitro release half-life of 9.5 d) [Reversible Lys26 CNP-38 PEG4x10 kDa conjugate 11i]	> 100 ratio	91 ratio	
LQEHPNARKYKGANKKGLSKGCFGLKLDRIGSMSGLGC (disulfide 22-38; not fully specified (residue 26), This is a reversible conjugate with an in vitro release half-life of 8.5 d) [Reversible Lys26 CNP-38 PEG2x20 kDa conjugate 10f]	> 100 ratio	12 ratio	
LQEHPNARKYKGANKKGLSKGCFGLKLDRIGSMSGLGC (disulfide 22-38)			1 ratio
LQEHPNARKYKGANKKGLSKGCFGLKLDRIGSMSGLGC (not fully specified; Lys26 side chain attached through a reversible Asn-linker (maleimidohexanoyl) to a thiol arm of 4-arm-thiol-PEG 40 kDa; disulfide Cys22-Cys38) [Conjugate 31d (4-arm PEG 40 kDa, Lys26 CNP-38, reversible conjugate)]		1.7 ratio	
